Data as given in US20080280834A1 (UNIVERSITY OF PITTSBURGH OF THE COMMONWEALTH SYSTEM OF …, published 2008).
Read-outs that look alike come from different tables or passages of the source. Blank lines part the entries; values can stand above or below the binder they belong to. No end group written: not given here.

Columns and labels:
[1] = target: T1, Fas receptor on Jurkat cells (UniProt P25445 26-335, limits assumed); assay: cell-based or functional assay
T1 sequence (looked up): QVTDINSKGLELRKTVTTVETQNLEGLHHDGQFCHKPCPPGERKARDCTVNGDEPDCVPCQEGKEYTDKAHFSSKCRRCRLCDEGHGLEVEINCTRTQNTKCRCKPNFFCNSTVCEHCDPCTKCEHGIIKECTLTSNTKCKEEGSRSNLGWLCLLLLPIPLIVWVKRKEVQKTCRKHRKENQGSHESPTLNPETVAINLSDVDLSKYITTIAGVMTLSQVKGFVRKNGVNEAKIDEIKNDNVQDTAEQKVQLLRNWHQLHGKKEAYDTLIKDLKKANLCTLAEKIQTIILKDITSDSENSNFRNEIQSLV

TNFR1 [2] = assay: cell-based or functional assay
[3] = target: T2, Recombinant Human Fas/TNFRSF6/Fc Chimera (human, UniProt P25445 26-173); assay: ELISA, peptide coated, Fas/Fc added
T2 construct: also called FasR; Fas receptor; Fc part of the bought chimera not given
T2 sequence (looked up): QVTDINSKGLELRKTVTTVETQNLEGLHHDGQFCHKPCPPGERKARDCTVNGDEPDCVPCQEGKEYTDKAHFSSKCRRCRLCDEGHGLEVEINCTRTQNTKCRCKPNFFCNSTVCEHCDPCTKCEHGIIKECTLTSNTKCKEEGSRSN
Protocol: (§1) ELISA. Peptides were dissolved in a coating buffer solution (0.05M Sodium Carbonate, 0.02% Sodium Azide, pH=9.6) at the appropriate concentrations to a final concentration of 10 μM. Dilutions were made accordingly to reach desired experimental concentrations. 100 μl aliquots of the peptide solution was added to each well and incubated for 2 hours. All incubations were carried out with shaking at T=37° C. Wells were washed by pipetting solution out of each well, adding 200 μL of washing solution (PBS-Tween; 0.5%), shaking for 15 minutes and emptying each well. Three wash cycles were carried out prior to addition of 200 μL of blocking solution (1% BSA in PBS buffer) to each well followed by incubation for 2 hours. Wells were then washed (as per above procedure) three times. Protein solutions of the appropriate concentrations (Vₛₒₗᵤₜᵢₒₙ 50 μL) were then added and incubated for 2 hours. After washing three times (as per above protocol) Fas specific antibody solution (˜1:20,000) was added to each well in 100 μL aliquots and incubated for 1 hour. After washing three times (as per above protocol) IgM-HRP solution (˜1:20,000) was added to each well in 100 μL aliquots and incubated (with shaking) for 1 hour at T=37° C. Wells were washed three times prior to the addition of ready-to-use TMD, followed by incubation for 30 minutes. 2M H₂SO₄ (3 drops) was added to stop colorimetric reaction and the absorption was taken at 450 nm on a Perkin-Elmer, Victor3 Model automated plate reader. Data was analyzed using standard regression fits in Excel.
(§2) Effect of Amino Acid Substitution on Binding Affinities. […] In the first series of peptides, alterations were made only to the tyrosine residue while retaining the final three amino acids homologous in the parent sequence (LGA).

[4] = target: T2, Recombinant Human Fas/TNFRSF6/Fc Chimera; assay: ELISA, peptide coated, Fas/Fc added; remark: listed apart in the source
Protocol: as §1, §2

[5] = target: T2, Recombinant Human Fas/TNFRSF6/Fc Chimera; assay: ELISA, peptide coated, Fas/Fc added; remark: listed apart in the source
Protocol: as §1, with “After washing three times (as per above protocol) IgM-HRP solution (˜1:20,000) was added to each well in 100 μL aliquots and incubated (with shaking) for 1 hour at T=37° C.” left out

[6] = target: T2, Recombinant Human Fas/TNFRSF6/Fc Chimera; assay: ELISA, peptide coated, Fas/Fc added; remark: listed apart in the source
Protocol: as §1, §2

[7] = target: T2, Recombinant Human Fas/TNFRSF6/Fc Chimera; assay: ELISA, peptide coated, Fas/Fc added; remark: listed apart in the source
Protocol: as §1, §2

[8] = target: T2, Recombinant Human Fas/TNFRSF6/Fc Chimera; assay: ELISA, peptide coated, Fas/Fc added; remark: listed apart in the source
Protocol: as §1, §2

TNFR1 [9] = target: T3, TNFR1; assay: method for TNFR not described
T3 construct: The same entry is used for the Kd and for the EC50 rows
T3 sequence (P19438 whole entry): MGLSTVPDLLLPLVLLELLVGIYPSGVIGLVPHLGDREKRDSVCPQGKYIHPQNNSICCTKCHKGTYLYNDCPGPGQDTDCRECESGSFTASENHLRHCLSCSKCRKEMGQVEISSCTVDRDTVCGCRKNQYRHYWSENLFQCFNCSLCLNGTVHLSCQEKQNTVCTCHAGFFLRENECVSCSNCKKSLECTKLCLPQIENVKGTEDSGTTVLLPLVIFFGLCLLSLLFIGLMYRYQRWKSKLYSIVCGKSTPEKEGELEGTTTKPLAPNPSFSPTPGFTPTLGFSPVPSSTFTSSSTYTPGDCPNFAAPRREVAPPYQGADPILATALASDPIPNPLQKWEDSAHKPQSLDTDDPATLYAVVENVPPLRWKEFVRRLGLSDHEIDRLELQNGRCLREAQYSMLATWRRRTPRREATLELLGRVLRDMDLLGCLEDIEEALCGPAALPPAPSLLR

[10] = target: T1, Fas receptor on Jurkat cells; assay: cell-based or functional assay; remark: listed apart in the source
[11] = target: T2, Recombinant Human Fas/TNFRSF6/Fc Chimera; assay: ELISA, peptide coated, Fas/Fc added; remark: listed apart in the source
Protocol: as §1
Effect of Flanking Residues on Binding Affinities. […] While this work has shown that tetrapeptides based from the original protein sequence can inhibit the FasL/FasR cell death pathway at low nM concentrations, the ability to improve upon this was examined by looking at the extended sequence on both the N-terminal and C-terminal side of the YLGA (SEQ ID NO:1) motif. Peptides up to 12 amino acids in length were synthesized based on the α-Met sequence and their Kₐ values measured for the Fas receptor, Table 7.

Ka [6]: 5e+07 M⁻¹
fold drop off against YLGA [6]: 4 fold
Binder: ELGA

Ka [3]: 1e+08 M⁻¹
Kd [3]: 10 nM
Ka [6]: 1e+08 M⁻¹
Binder: FLGA

Ka [6]: 9e+06 M⁻¹
Binder: ILGA

Ka [3]: 8e+07 M⁻¹
Kd [3]: 13 nM
Ka [6]: 8e+07 M⁻¹
Binder: WLGA

Ka [4]: 1e+07 M⁻¹
fold decrease in Ka [6]: 20 fold
Binder: YGGA

Ka [4]: 2e+08 M⁻¹
Binder: YIGA

EC50 (FasR) [1]: 52 nM
EC50 (TNFR) (TNFR1 [2]): 8 nM
Ka [3]: 4e+07 M⁻¹
Kd [3]: 28 nM
Kd [5]: 28 nM
times less affinity than YLGA [6]: ~10 times
Ka [7]: 4e+07 M⁻¹
Kd (TNFR1 [9]): 4 nM
Binder: YLGG
EC50 (nM), cell viability of Jurkat cells exposed to recombinant FasL [10]: 52 nM

fold decrease in Ka [6]: 20 fold
Ka [8]: 1e+06 M⁻¹
Binder: YLLA

Ka [4]: 2e+08 M⁻¹
Binder: YVGA

Ka [11]: 3e+08 M⁻¹
Binder: HHIYLGATNYIY [HHI YLG ATN YIY]

Ka [11]: 3e+08 M⁻¹
Binder: IYLGATNYIY [I YLG ATN YIY]

Ka [11]: 3e+08 M⁻¹
Binder: YLGATNYIY [YLG ATN YIY]

Ka [11]: 3e+08 M⁻¹
Binder: HHIYLGATNYI [HHI YLG ATN YI]

Ka [11]: 3e+08 M⁻¹
Binder: HHIYLGATNY [HHI YLG ATN Y]

Ka [11]: 3e+08 M⁻¹
Binder: HHIYLGATN [HHI YLG ATN]

Ka [11]: 3e+08 M⁻¹
Binder: HHIYLGAT [HHI YLG AT]

More lines, now with the values behind:

B1: YLGA (peptide)
peptide: YLGA
modifications: not fully specified
notes: Synthetic peptide; also called original tyrosine peptide
EC50 (FasR) [1]: 6 nM
EC50 (TNFR) (TNFR1 [2]): 11 nM
Ka [3]: 2e+08 M⁻¹
Kd [3]: 5 nM
Ka [4]: 2e+08 M⁻¹
Kd [5]: 5 nM
Ka [6]: 2e+08 M⁻¹
Ka [7]: 2e+08 M⁻¹
Ka [8]: 2e+08 M⁻¹
Kd (TNFR1 [9]): 6 nM
EC50 (nM), cell viability of Jurkat cells exposed to recombinant FasL [10]: 6 nM

Binder: ALGA
binding result [6]: no binding (tested: concentration range of 1 nM to 1 µM)

Binder: DLGA
Ka [6]: 5e+07 M⁻¹
fold drop off against YLGA [6]: 4 fold

Binder: GLGA
binding result [6]: no binding (tested: concentration range of 1 nM to 1 µM)

Binder: KLGA
Ka [6]: 8e+06 M⁻¹

Binder: LLGA
Ka [3]: 1e+07 M⁻¹
Kd [3]: 88 nM
Ka [6]: 1e+07 M⁻¹
EC50 (nM), cell viability of Jurkat cells exposed to recombinant FasL [10]: 93 nM

Binder: SLGA
Ka [3]: 2e+08 M⁻¹
Kd [3]: 5 nM
Ka [6]: 2e+08 M⁻¹
EC50 (nM), cell viability of Jurkat cells exposed to recombinant FasL [10]: 6 nM

Binder: TLGA
Ka [6]: 2e+08 M⁻¹

Binder: YAGA
Ka [3]: 3e+08 M⁻¹
Kd [3]: 4 nM
Ka [4]: 3e+08 M⁻¹
EC50 (nM), cell viability of Jurkat cells exposed to recombinant FasL [10]: 6 nM

Binder: YFGA
binding result [4]: no binding (tested: concentration range of 1 nM to 1 µM)

Binder: YLAA
fold decrease in Ka [6]: 20 fold
Ka [8]: 1e+06 M⁻¹

Binder: YLGI
times less affinity than YLGA [6]: ~10 times
Ka [7]: 3e+07 M⁻¹

Binder: YLGL
times less affinity than YLGA [6]: ~10 times
Ka [7]: 3e+07 M⁻¹

Binder: YLGT
binding result [7]: no binding (tested: concentration range of 1 nM to 1 µM)

Binder: YLIA
binding result [8]: no binding (tested: concentration range of 1 nM to 1 µM)

Binder: YTGA
binding result [4]: no binding (tested: concentration range of 1 nM to 1 µM)

Binder: HIYLGATNYIY [HI YLG ATN YIY]
Ka [11]: 3e+08 M⁻¹

Binder: HHIYLGA [HHI YLG A]
Ka [11]: 3e+08 M⁻¹
